From paper doi:10.1101/2020.06.19.161133, “Structure of the yeast Nup84-Nup133 complex details flexibility and reveals universal conservation of the membrane anchoring ALPS motif” (bioRxiv, 2020) come the findings set out here.

Holding throughout (details): both partners purified
Assay [1] has as its target T1, Nup84 (full-length, S. cerevisiae) (S. cerevisiae, UniProt P52891).
T1 construct: Nup84, S. cerevisiae, full length; The tag is 3C-cleavable; also called scNup84
In words: crystal structure; Nup84-Nup133CTD with VHH-SAN8 and VHH-SAN9, 7.4 Å; same crystal form and conditions as the singly bound complex.

In assay [2] the target is T2, Nup84-Nup133CTD heterodimeric complex (Saccharomyces cerevisiae (strain ATCC …, UniProt P52891;P36161)).
T2 construct: Nup84, S. cerevisiae, full length; source: E. coli LOBSTR-RIL(DE3), co-expressed from a bicistronic vector, purified (Ni Sepharose, SP Sepharose, Superdex 200)
T2 sequence (P52891 whole entry, chain 1 of 2): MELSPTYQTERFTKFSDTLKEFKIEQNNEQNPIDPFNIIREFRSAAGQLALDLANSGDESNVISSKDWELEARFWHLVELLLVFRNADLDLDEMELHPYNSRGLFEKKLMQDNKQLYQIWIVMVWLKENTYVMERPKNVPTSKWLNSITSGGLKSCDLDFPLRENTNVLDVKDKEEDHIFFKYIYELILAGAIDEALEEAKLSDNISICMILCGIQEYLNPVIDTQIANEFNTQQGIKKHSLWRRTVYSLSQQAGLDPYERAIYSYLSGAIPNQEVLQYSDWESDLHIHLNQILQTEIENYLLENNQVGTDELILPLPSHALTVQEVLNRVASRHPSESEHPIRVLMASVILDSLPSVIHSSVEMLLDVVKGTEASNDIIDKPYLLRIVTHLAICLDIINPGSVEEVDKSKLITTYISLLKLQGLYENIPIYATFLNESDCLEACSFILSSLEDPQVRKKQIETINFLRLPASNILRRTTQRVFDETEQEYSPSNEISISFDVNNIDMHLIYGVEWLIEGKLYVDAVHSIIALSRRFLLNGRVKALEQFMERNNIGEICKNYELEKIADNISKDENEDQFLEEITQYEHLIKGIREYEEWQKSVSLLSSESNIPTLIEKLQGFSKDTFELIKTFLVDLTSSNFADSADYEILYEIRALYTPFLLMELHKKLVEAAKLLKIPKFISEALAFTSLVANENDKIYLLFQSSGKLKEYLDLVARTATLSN
T2 sequence (P36161 521-1157, chain 2 of 2): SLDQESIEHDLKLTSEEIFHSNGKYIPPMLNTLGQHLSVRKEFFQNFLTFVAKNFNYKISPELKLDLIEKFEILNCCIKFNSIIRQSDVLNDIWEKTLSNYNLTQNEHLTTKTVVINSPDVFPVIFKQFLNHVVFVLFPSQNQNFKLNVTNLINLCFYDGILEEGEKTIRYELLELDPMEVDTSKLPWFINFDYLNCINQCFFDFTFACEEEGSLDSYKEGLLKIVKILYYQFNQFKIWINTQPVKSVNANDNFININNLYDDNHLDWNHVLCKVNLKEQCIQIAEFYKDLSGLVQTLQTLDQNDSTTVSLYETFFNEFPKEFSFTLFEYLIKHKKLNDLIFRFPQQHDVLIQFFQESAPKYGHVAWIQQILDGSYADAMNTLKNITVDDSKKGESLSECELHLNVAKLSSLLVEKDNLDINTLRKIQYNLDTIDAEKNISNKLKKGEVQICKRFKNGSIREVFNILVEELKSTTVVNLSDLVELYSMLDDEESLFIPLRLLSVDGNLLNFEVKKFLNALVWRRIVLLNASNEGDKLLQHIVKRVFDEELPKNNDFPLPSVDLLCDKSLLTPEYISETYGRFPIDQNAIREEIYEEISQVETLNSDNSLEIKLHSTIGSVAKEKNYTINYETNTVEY
The assay is described as above.

Assay [3] addresses T3, Nup133 N-terminal domain (Nup133NTD, residues 55-481) (S. cerevisiae, UniProt P36161).
T3 construct: Nup133, S. cerevisiae, N-terminal beta-propeller, residues 55-481; The tag is 3C-cleavable; also called scNup133NTD; WT-Nup133NTD; source: E. coli LOBSTR-RIL(DE3), purified (Ni Sepharose, Superdex 75)
In words: crystal structure; Nup133NTD-VHH-SAN5, 2.8 Å, molecular replacement; six copies in the asymmetric unit; crystals at 18 °C, PEG MME 2,000, potassium chloride, Tris/HCl pH 8.

The target of assay [4] is T3, Nup133 N-terminal domain (Nup133NTD, …). Description: crystal structure; Nup133NTD-VHH-SAN4, 2.1 Å, molecular replacement; crystals at 18 °C, PEG 3,350, ammonium sulfate, Bis-Tris/HCl pH 5.5.
Assay [5] has as its target T1, Nup84 (full-length, S. cerevisiae). Description: crystal structure; Nup84-Nup133CTD-VHH-SAN8, 6.4 Å, SAD with a polyoxotungstate derivative; crystals at 18 °C, PEG 8,000, ethylene glycol, imidazole/MES pH 6.5.
Assay [6] addresses T2, Nup84-Nup133CTD heterodimeric complex. Described as above.

T1 sequence (P52891 whole entry): as the sequence (P52891 whole entry, chain 1 of 2) above
T3 sequence (P36161 55-481): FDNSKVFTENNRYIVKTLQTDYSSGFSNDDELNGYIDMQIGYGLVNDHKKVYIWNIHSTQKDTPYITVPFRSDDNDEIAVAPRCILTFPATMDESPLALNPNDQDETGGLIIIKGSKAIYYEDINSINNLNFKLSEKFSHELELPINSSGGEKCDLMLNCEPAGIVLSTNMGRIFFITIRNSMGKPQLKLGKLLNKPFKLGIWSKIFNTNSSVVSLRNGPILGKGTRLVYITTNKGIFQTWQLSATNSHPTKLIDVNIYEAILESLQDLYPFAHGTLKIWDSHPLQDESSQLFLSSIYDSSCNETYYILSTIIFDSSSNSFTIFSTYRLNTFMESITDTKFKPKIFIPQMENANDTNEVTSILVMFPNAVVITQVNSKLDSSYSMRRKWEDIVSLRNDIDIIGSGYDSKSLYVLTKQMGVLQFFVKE

B1: VHH-SAN9 (VHH)
VHH: QVQLVESGGGSVQAGGSLRLSCAVSGGTLSTLAMGWFRQAPGQEREFVARIGWTNGDTGYADSVKGRFTISRDNVKNTVYLQMNNLKPEDTALYYCATRRPYGSTLYPPNTESAHDNWGQGTQVTVSS
notes: structure deposited as PDB 6X03 (the model is a nanobody without CDRs placed as a rigid body); Selected by phage display from an alpaca immunised with the full-length Y complex; also called VHH9; nanobody VHH-SAN9; source: E. coli, purified (Ni Sepharose, tag cut with SEN-p protease, Superdex 75); not shown: 14xHis bdSUMO, N-terminal, cleaved
For B1, the binding result in assay [1] and in assay [2] was “binds” throughout.

B2: VHH-SAN5 (VHH)
VHH: QVQLVESGGGLVQAGGSLRLSCAASGSIGSLDAMAWYRRAPGKQRERVASISRYGTYYVDSVKGRFTISRDNAKNTVYLQMNSLKPEDTGVYYCKGVMEVGGVIDEYWGQGTQVTVSS
notes: structure deposited as PDB 6X04 (2.8 Å, nanobody chains); Selected by phage display from an alpaca immunised with the full-length Y complex, panned against Nup133NTD; also called nanobody VHH-SAN5; source: E. coli, purified (Ni Sepharose, tag cut with SEN-p protease, Superdex 75); not shown: 14xHis bdSUMO, N-terminal, cleaved
On to B2, for which, in assay [3], the binding result is “binds”.

B3: VHH-SAN4 (VHH)
VHH: QLQLVESGGGSVQAGGSLTLSCTASESISKRIHGIGWFRQRRGEQREEIAYITTGGRPNLGDSVKDRFTISRDKSNGTVYLQMNSLKPEDTAVYYCHGRGRWWGTEGRLDYWGQGTQVTVSS
notes: structure deposited as PDB 6X05 (2.1 Å, nanobody chain); Selected by phage display from an alpaca immunised with the full-length Y complex, panned against Nup133NTD; also called nanobody VHH-SAN4; source: E. coli, purified (Ni Sepharose, tag cut with SEN-p protease, Superdex 75); not shown: 14xHis bdSUMO, N-terminal, cleaved
Consider B3, for which the binding result in assay [4] was “binds”.

B4: VHH-SAN8 (VHH)
VHH: QLQLVETGGGLVQAGGSLRLSCVASGRTFTSYAMGWFRQAPGKEREFVAAISRLASGTDYADSVKGRFTISRNNDKNTVYLQMNNLIPEDTAVYYCAALQALRFSLPIAMATMKNGRADSWGQGTQVTVSS
notes: structure deposited as PDB 6X02 and 6X03 (the model is a generic nanobody without CDRs, PDB 1BZQ, placed as a rigid body); Selected by phage display from an alpaca immunised with the full-length Y complex, panned against Nup84; also called VHH8; nanobody VHH-SAN8; source: E. coli, purified (Ni Sepharose, tag cut with SEN-p protease, Superdex 75); not shown: 14xHis bdSUMO, N-terminal, cleaved
For the molecule B4, the binding result in assay [5] and in assay [6] was “binds” in each case.
